Results taken from patent US20130078247A1 (Boehringer Ingelheim, published 2013).
Numbering of substitutions follows the chain as printed. Several values for one entry are separate records, joined by “and”; a condition that tells them apart may be missing. Equal entries are not always repeated. Where two headings read alike, the source gives them in different places.

Key:
cynomolgus Ang2 [1] = molecular target: T1, cynomolgus Ang2 (cynomolgus); test: competition ELISA: cAng2 binding to cTie2
T1 construct: also called cAng2; cyno Ang2

human Ang2 [2] = molecular target: T2, human Ang2 (human, UniProt O15123 19-496, limits assumed); test: competition ELISA: hAng2 binding to hTie2
T2 construct: also called hAng2; human Angiopoietin2
T2 sequence (looked up): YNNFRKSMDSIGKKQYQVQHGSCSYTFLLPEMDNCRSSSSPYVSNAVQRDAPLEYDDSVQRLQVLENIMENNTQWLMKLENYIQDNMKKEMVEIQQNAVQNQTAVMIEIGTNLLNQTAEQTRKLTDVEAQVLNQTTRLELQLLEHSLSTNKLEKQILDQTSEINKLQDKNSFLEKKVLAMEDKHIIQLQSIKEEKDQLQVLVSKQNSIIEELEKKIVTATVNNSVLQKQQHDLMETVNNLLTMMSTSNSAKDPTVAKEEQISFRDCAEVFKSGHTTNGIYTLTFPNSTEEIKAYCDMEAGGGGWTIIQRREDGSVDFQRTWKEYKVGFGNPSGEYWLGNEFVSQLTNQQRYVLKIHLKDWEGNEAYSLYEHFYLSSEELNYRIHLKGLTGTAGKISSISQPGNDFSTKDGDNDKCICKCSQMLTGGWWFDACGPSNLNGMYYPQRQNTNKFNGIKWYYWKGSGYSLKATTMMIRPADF

mouse Ang2 [3] = molecular target: T3, mouse Ang2 (mouse, UniProt O35608 19-496, limits assumed); test: competition ELISA: mAng2 binding to mTie2
T3 construct: also called mAng2
T3 sequence (looked up): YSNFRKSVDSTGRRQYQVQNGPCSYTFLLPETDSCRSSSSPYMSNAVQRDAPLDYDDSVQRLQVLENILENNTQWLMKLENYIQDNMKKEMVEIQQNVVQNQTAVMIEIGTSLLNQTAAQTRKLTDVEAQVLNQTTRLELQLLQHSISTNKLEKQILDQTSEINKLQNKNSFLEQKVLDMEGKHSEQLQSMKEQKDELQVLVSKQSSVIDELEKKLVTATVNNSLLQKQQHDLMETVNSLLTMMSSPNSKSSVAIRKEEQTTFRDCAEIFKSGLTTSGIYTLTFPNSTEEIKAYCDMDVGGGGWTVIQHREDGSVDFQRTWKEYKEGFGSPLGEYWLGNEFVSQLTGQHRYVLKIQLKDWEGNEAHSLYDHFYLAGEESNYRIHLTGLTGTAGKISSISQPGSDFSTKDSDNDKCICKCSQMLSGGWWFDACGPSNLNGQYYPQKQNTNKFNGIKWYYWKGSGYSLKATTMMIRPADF

mouse Ang2 [4] = molecular target: T3, mouse Ang2; test: competition ELISA: mAng2 binding to mTie2; remark: listed apart in the source
cynomolgus Ang2 [5] = molecular target: T1, cynomolgus Ang2; test: competition ELISA: cAng2 binding to cTie2; remark: listed apart in the source
human Ang2 [6] = molecular target: T2, human Ang2; test: competition ELISA: hAng2 binding to hTie2; remark: listed apart in the source
mouse Ang2 [7] = molecular target: T3, mouse Ang2; test: competition ELISA: mAng2 binding to mTie2; remark: listed apart in the source
cynomolgus Ang2 [8] = molecular target: T1, cynomolgus Ang2; test: competition ELISA: cAng2 binding to cTie2; remark: listed apart in the source
human Ang2 [9] = molecular target: T2, human Ang2; test: competition ELISA: hAng2 binding to hTie2; remark: listed apart in the source
[10] = molecular target: recombinant human DLL4 extracellular domain, C-terminally His-tagged (R&D Systems) (human, UniProt Q9NR61 25-522, biotinylated in the competition assays (sites not given)); test: cell-based or functional assay
[11] = molecular target: T4, recombinant human Jagged-1 (Alexis) (human, UniProt P78504 34-1067, limits assumed); test: binding ELISA on coated rhJagged-1
T4 construct: also called hJagged-1; hJAG1
Experimental: Absence of binding to homologous ligands human DLL1 and human Jagged-1 is assessed via solid phase binding assay (ELISA). In brief, human DLL1 (Alexis, San Diego, Calif., USA) and human Jagged-1 (Alexis, San Diego, Calif., USA) are coated overnight at 4° C. at 1 μg/mL in a 96-well MaxiSorp plate (Nunc, Wiesbaden, Germany). Wells are blocked with a casein solution (1% in PBS). VHHs are applied as dilution series and binding is detected using a mouse anti-myc (Roche) and an anti-mouse-AP conjugate (Sigma, St. Louis, Mo., USA).

[12] = molecular target: T5, human DLL4, full length, overexpressed on CHO or HEK293 cells (human, UniProt Q9NR61 27-685); test: cell-based or functional assay
[13] = molecular target: T6, cynomolgus DLL4, full length, overexpressed on cells (cynomolgus, UniProt Q9NR61 27-685 (human entry)); test: FACS titration on HEK293-cDLL4 cells
T6 construct: also called CHO-cDLL4; cDLL4
T6 chain: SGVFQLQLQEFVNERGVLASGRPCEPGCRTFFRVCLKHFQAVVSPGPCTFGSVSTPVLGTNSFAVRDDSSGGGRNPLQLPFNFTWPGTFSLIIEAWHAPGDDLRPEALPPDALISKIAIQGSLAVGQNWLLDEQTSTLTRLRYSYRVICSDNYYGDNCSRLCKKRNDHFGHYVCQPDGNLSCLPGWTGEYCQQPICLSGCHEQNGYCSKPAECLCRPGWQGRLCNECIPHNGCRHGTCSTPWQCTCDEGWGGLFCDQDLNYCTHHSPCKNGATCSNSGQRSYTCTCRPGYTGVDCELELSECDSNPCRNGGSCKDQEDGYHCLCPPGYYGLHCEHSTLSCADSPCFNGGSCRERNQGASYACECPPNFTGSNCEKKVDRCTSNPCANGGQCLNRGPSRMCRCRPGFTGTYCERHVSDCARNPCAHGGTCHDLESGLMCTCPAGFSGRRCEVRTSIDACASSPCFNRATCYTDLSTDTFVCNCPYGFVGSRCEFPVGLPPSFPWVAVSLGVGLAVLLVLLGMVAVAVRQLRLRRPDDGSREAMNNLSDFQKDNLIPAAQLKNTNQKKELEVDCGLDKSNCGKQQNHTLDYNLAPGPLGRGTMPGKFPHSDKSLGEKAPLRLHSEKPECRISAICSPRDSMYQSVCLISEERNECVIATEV
Experimental: (§1) In order to determine the cynomologus cross-reactivity of the VHHs, a FACS binding experiment is performed. Cynomolgus DII4 expressing HEK293 cells (transient or stable transfection) are used for a titration binding experiment of the VHHs. After a 30 minutes incubation on ice, all samples are washed and detection is performed by applying anti-c-myc-Alexa647 (Santa Cruz Biotechnology, Santa Cruz, Calif., USA). Human and mouse DII4 overexpressing HEK293 cells are taken as reference. The mean MCF value is determined on the FACS Array and used for calculation of the EC₅₀ value (see FIG. 9).

[14] = molecular target: T5, human DLL4, full length, overexpressed …; test: FACS titration on HEK293-hDLL4 cells
Experimental: as §1

[15] = molecular target: T7, cynomolgus DLL4 overexpressed on CHO cells (cynomolgus, UniProt Q9NR61 27-685 (human entry)); test: FACS, CHO-cDLL4 cells
T7 construct: also called CHO-cDLL4; cDLL4
T7 chain: T6 chain
Experimental: Additionally, in order to determine cross-reactivity of the bispecific VHHs to murine and cynomolgus DLL4, a FACS binding experiment is performed. Briefly, CHO cells overexpressing mouse and cynomolgus DLL4 are used for a titration binding experiment of the VHHs. After a 30 min incubation on ice, all samples are washed and a 2-step detection using anti-c-myc followed by goat-anti mouse IgG-PE labeled is performed. CHO cells overexpressing human DLL4 are taken as reference. The mean MCF value is determined using a FACS Array and used for calculation of the EC₅₀ value (Table 24; FIG. 19).

rat DLL4 = molecular target: T8, rat DLL4 (rat, UniProt D3ZHH1 28-530, limits assumed); test: binding ELISA, coated rat DLL4
T8 construct: also called rDLLA; rDLL4
Experimental: (§2) In order to determine cross-reactivity to mouse DLL4 and rat DLL4, a binding ELISA is performed. […] Wells are blocked with a 1% casein solution. VHHs are applied as dilution series and binding is detected biotinylated anti-VHH 1A4 followed by extravidin-HRP. 1A4 is an anti-VHH VHH (generated in-house by Ablynx NV). As reference binding to human DLL4 is measured.

recombinant mouse DLL4 = molecular target: T9, recombinant mouse DLL4 (mouse, UniProt Q9JI71 27-532); test: binding ELISA, coated mDLL4
T9 construct: extracellular domain; also called rmDLL4; mDLL4; not shown: C-terminal His tag
Experimental: as §2

recombinant human DLL4 [16] = molecular target: T10, recombinant human DLL4 (human, UniProt Q9NR61 25-522); test: SPR Biacore T100; rhDLL4 on chip; heterogeneous binding curve, no 1:1 fit
T10 construct: R&D Systems C-terminally His-tagged extracellular domain; also called rhDLL4; hDLL4; not shown: C-terminal His tag

recombinant human DLL4 [17] = molecular target: T10, recombinant human DLL4; test: cell-based or functional assay

T8 sequence (D3ZHH1 28-530 limits assumed): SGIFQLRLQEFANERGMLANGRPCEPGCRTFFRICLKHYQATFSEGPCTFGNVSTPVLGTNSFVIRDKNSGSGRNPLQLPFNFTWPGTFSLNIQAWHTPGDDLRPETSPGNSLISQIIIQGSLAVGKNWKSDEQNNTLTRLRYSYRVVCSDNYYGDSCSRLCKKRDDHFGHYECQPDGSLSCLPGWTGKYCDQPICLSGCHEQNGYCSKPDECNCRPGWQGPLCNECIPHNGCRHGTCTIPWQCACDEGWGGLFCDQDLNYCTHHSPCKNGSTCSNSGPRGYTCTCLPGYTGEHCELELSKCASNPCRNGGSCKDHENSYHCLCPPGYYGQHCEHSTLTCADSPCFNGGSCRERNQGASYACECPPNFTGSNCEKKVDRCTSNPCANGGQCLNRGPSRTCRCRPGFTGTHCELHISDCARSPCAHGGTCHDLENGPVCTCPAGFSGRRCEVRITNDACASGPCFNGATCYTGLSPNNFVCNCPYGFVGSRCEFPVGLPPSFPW
T9 sequence (Q9JI71 27-532): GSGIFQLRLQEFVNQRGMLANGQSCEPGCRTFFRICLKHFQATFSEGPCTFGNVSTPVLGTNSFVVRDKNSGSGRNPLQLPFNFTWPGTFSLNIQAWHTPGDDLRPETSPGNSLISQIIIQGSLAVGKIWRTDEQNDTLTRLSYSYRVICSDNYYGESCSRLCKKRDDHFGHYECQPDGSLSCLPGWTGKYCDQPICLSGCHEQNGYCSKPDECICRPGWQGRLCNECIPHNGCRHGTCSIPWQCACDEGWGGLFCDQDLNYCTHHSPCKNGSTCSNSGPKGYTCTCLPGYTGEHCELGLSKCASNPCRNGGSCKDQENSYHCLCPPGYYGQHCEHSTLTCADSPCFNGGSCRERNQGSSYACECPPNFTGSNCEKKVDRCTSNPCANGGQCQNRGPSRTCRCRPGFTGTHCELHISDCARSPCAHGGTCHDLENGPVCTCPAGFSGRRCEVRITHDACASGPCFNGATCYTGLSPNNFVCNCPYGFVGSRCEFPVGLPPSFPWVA

B1: 00956 (VHH)
VHH: EVQLVESGGGLVQPGGSLRLSCAASGFTLDDYAIGWFRQAPGKEREGVSAIRSSGGSTYYADSVKGRFTISSDNSKNTVYLQMNSLRPEDTAVYYCAAVPAGRLRFGEQWYPLYEYDAWGQGTLVTVSS
IC50 (read off the curve) (cynomolgus Ang2 [1]): ~2 nM | IC50 (read off the curve) (human Ang2 [2]): ~1 nM | IC50 (read off the curve) (mouse Ang2 [3]): ~2 nM

B2: 00938 (VHH)
VHH: B1 VHH with A24V, F27I, F106Y, L113I
IC50 (read off the curve) (mouse Ang2 [4]): ~0.06 nM | IC50 (read off the curve) (cynomolgus Ang2 [5]): ~0.1 nM | IC50 (read off the curve) (human Ang2 [6]): ~0.04 nM

B3: 00921 (VHH)
VHH: EVQLVESGGGLVQPGGSLRLSCAASGFTFDDYALGWFRQAPGKEREGVSCIRCSGGSTYYADSVKGRFTISSDNSKNTVYLQMNSLRPEDTAVYYCAASIVPRSKLEPYEYDAWGQGTLVTVSS
IC50 (read off the curve) (mouse Ang2 [7]): ~30 nM | IC50 (read off the curve) (cynomolgus Ang2 [8]): ~40 nM | IC50 (read off the curve) (human Ang2 [9]): ~20 nM

B4: DLLBII56A09 (VHH)
VHH: EVQLVESGGGLVQPGGSLRLSCAASGFTFDDYAIGWFRQAPGKEPEGISCISSSGGITYYADSVKGRFTTSRDNAKNTVYLQMNSLKPEDTAVYYCATPGIAACRGIHYTGQGTQVTVSS
notes: also called 56A9; DLLBII56A9; not shown: C-terminal c-myc and His6 tags
concentration giving complete inhibition, HUVEC proliferation assay [10]: 10 µM | binding result [11]: no binding (tested: 2.5e-7 M) | IC50, DLL4/Notch1 reporter assay (luciferase; co-culture with HEK293-hDII4) [12]: 540 nM

B5: DLLBII56C04 (VHH)
VHH: B4 VHH with A23T, D31V, G56S, N74S, T110W
notes: not shown: C-terminal c-myc and His6 tags
binding result [13]: binds | EC50 (read off the curve) [14]: ~5 nM

B6: DLLBII00018 (VHH)
VHH: DVQLVESGGGLVQPGGSLRLSCAASGRTFSSYAMAWYRQAPGKEREYVAAIRWSGGTAYYADSVKGRFTISRDNAKNTVYLQMNSLRPEDTAVYYCANRAPDTRLAPYEYDHWGQGTLVTVSS
EC50 [15]: 0.8 nM | EC50 (rat DLL4): 2.6 nM | EC50 (recombinant mouse DLL4): 3.3 nM

B7: DLLBII104G01 (VHH)
VHH: EVQLVESGGGLVQAGGSLRLSCAASGFTFDDYAIGWFRQAPGKEREGVSCISSSDGSTYYADSVKGRFTISSDNAKNTVYLQMNSLKPEDTAVYYCATAWCDSSWYRSFVGYWGQGTQVTVSS
notes: also called 104G1; not shown: C-terminal c-myc tag and His6 tag
kon (recombinant human DLL4 [16]): 120000 M⁻¹ s⁻¹ and 150000 M⁻¹ s⁻¹ | IC50 (nM) in the DLL4 proliferation assay (HUVEC, experiment 1) (recombinant human DLL4 [17]): 103 nM | IC50 (nM) in the DLL4 proliferation assay (HUVEC, experiment 2) (recombinant human DLL4 [17]): 32 nM
